Measurements from paper doi:10.1101/2022.03.14.484294 (bioRxiv, 2022).

Target: Recombinant human Rac1 (Q2-L177), His-tagged (human, UniProt P63000 2-177)
Test: AlphaScreen or HTRF

B1: Truncated recombinant human Tiam1 (R1033-E1406), FLAG-tagged (domain or fragment)
chain: RQLSDADKLRKVICELLETERTYVKDLNCLMERYLKPLQKETFLTQDELDVLFGNLTEMVEFQVEFLKTLEDGVRLVPDLEKLEKVDQFKKVLFSLGGSFLYYADRFKLYSAFCASHTKVPKVLVKAKTDTAFKAFLDAQNPKQQHSSTLESYLIKPIQRILKYPLLLRELFALTDAESEEHYHLDVAIKTMNKVASHINEMQKIHEEFGAVFDQLIAEQTGEKKEVADLSMGDLLLHTTVIWLNPPASLGKWKKEPELAAFVFKTAVVLVYKDGSKQKKKLVGSHRLSIYEDWDPFRFRHMIPTEALQVRALASADAEANAVCEIVHVKSESEGRPERVFHLCCSSPESRKDFLKAVHSILRDKHRRQLLKTE
binding result: binds
